Experimental data as given in patent US20180133314A1 (Daiichi Sankyo, published 2018).
Blank lines part the entries; values can stand above or below the binder they belong to.

Tests used:
[1] = molecular target: T1, human FGFR2 IIIc variant protein (human, UniProt P21802 22-821); assay: flow cytometry, hybridoma culture supernatant on transfected HEK293T cells
T1 construct: also called hFGFR2 IIIc
Method: HEK293T cells were inoculated at a density of 5×10⁴ cells/cm² to a 225-cm² flask (manufactured by Sumitomo Bakelite Co., Ltd.) and cultured overnight at 37° C. under 5% CO₂ conditions in a DMEM medium containing 10% FBS. On the next day, the pcDNA-DEST40-FGFR2 IIIc, the pcDNA-DEST40-FGFR2 IIIb or a control pcDNA-DEST40 was transfected to the HEK293T cells using Lipofectamine 2000, and the cells were further cultured overnight at 37° C. under 5% CO₂ conditions. On the next day, the expression vector-transfected HEK293T cells were treated with TrypLE Express (manufactured by Life Technologies Corp.), washed with DMEM containing 10% FBS, and then suspended in PBS containing 5% FBS. The obtained cell suspension was used in flow cytometry analysis.
The pcDNA-DEST40-FGFR2 IIIc and pcDNA-DEST40-FGFR2 IIIb binding specificity of the antibody produced by each hybridoma determined to be positive by Cell-ELISA in Example 1)-4 was further confirmed by flow cytometry. Each HEK293T cell suspension prepared in Example 1)-5-1 was centrifuged to remove a supernatant. […] The data was analyzed using Flowjo (manufactured by Tree Star Inc.). After removal of 7-aminoactinomycin D-positive dead cells by gating, the FITC fluorescence intensity of live cells was plotted to a histogram.

[2] = molecular target: T2, human FGFR1 IIIc variant protein (human, UniProt P11362 22-822); assay: immunostaining of formalin-fixed, paraffin-embedded transfected 293alpha cell blocks (denatured), proteinase K retrieval
[3] = molecular target: T3, human FGFR2 IIIb variant protein (human, UniProt P21802-3 22-822); assay: as above
T3 construct: whole, on cells; also called hFGFR2 IIIb

[4] = molecular target: T4, human FGFR3 IIIc variant protein (human, UniProt P22607 23-806); assay: as above
[5] = molecular target: T1, human FGFR2 IIIc variant protein; assay: immunostaining of formalin-fixed, paraffin-embedded transfected 293alpha cell blocks (denatured), 15 µg/mL
Method: The cells were transfected with the FGFR1 IIIb, FGFR1 IIIc, FGFR2 IIIb, FGFR2 IIIc, FGFR3 IIIb, FGFR3 IIIc, or FGFR4 expression vector constructed in Examples 1)-3-1, 1)-3-2, and 1)-3-3 or an empty vector, i.e., pcDNA-DEST40-FGFR1 IIIb, pcDNA-DEST40-FGFR1 IIIc, pcDNA-DEST40-FGFR2 IIIb, pcDNA-DEST40-FGFR2 IIIc, pcDNA-DEST40-FGFR3 IIIb, pcDNA-DEST40-FGFR3 IIIc, pcDNA-DEST40-FGFR4, or pcDNA-DEST40 using FuGENE 6 (manufactured by Roche Diagnostics K.K.) and cultured for two nights at 37° C. under 5% CO₂ conditions. The obtained cells were recovered using TrypLE Express (manufactured by Life Technologies Corp.) and centrifuged to obtain a pellet, which was then washed once with PBS and centrifuged. The resulting pellet was fixed in 20% neutral buffered formalin.
Each sample was stained using an automatic staining apparatus (LEICA BOND-III; manufactured by Leica Biosystems Nussloch GmbH). For deparaffinization, the sample was heated to 72° C., then Bond Dewax Solution (manufactured by Leica Biosystems Nussloch GmbH) was added thereto, and the sample was incubated for 30 seconds, followed by addition of ethanol and washing 4 times with Bond Wash Solution (manufactured by Leica Biosystems Nussloch GmbH). Enzyme Proteinase K (IHC) (manufactured by Leica Biosystems Nussloch GmbH) diluted 200-fold was added thereto, and the sample was incubated at 37° C. for 5 minutes. […]

[6] = molecular target: T3, human FGFR2 IIIb variant protein; assay: flow cytometry on transfected HEK293T cells (non-denatured)
Excerpt: (§1) The binding specificity of the mouse chimeric FR2-2nd_#028 and the mouse chimeric FR2-2nd_#023 prepared in Example 3)-7 for non-denatured molecules of the FGFR family was confirmed by flow cytometry. Each HEK293T cell suspension prepared in Example 3)-8-1 was centrifuged to remove a supernatant. Then, the pcDNA-DEST40-FGFR1 IIIb-, pcDNA-DEST40-FGFR1 IIIc-, pcDNA-DEST40-FGFR2 IIIb-, pcDNA-DEST40-FGFR2 IIIc-, pcDNA-DEST40-FGFR3 IIIb-, pcDNA-DEST40-FGFR3 IIIc-, pcDNA-DEST40-FGFR4-, or pcDNA-DEST40-transfected HEK293T cells were suspended by the addition of a negative control mouse IgG1 (manufactured by R&D Systems, Inc.) or the mouse chimeric FR2-2nd_#028 or the mouse chimeric FR2-2nd_#023 adjusted to 5 μg/ml, and left standing at 4° C. for 1 hour. The cells were washed once with PBS containing 5% FBS, then suspended by the addition of Fluorescein-Conjugated Goat IgG Fraction to Mouse IgG (manufactured by MP Biomedicals, Inc.) diluted 500-fold with PBS containing 5% FBS, and left standing at 4° C. for 1 hour. […] The data was analyzed using Flowjo (manufactured by Tree Star Inc.). After removal of 7-aminoactinomycin D-positive dead cells by gating, the average fluorescence intensity (MFI) of the FITC of live cells was calculated (FIG. 1).

[7] = molecular target: T2, human FGFR1 IIIc variant protein; assay: immunostaining of formalin-fixed, paraffin-embedded transfected 293alpha cell blocks (denatured), heat retrieval
[8] = molecular target: T4, human FGFR3 IIIc variant protein; assay: as above
[9] = molecular target: T1, human FGFR2 IIIc variant protein; assay: immunostaining of formalin-fixed, paraffin-embedded blocks of 293alpha cells forced to express FGFR2 IIIc; antibody at 15 ug/mL, heat retrieval
[10] = molecular target: T3, human FGFR2 IIIb variant protein; assay: immunostaining of formalin-fixed, paraffin-embedded blocks of 293alpha cells forced to express FGFR2 IIIb; antibody at 15 ug/mL, heat retrieval
[11] = molecular target: T4, human FGFR3 IIIc variant protein; assay: flow cytometry on transfected HEK293T cells (non-denatured)
Excerpt: as §1

[12] = molecular target: T1, human FGFR2 IIIc variant protein; assay: immunostaining of formalin-fixed, paraffin-embedded blocks of 293alpha cells forced to express FGFR2 IIIc; antibody at 15 ug/mL, heat retrieval; remark: listed apart in the source
[13] = molecular target: T3, human FGFR2 IIIb variant protein; assay: immunostaining of formalin-fixed, paraffin-embedded blocks of 293alpha cells forced to express FGFR2 IIIb; antibody at 15 ug/mL, heat retrieval; remark: listed apart in the source

T1 sequence (P21802 22-821 limits assumed, change not shown): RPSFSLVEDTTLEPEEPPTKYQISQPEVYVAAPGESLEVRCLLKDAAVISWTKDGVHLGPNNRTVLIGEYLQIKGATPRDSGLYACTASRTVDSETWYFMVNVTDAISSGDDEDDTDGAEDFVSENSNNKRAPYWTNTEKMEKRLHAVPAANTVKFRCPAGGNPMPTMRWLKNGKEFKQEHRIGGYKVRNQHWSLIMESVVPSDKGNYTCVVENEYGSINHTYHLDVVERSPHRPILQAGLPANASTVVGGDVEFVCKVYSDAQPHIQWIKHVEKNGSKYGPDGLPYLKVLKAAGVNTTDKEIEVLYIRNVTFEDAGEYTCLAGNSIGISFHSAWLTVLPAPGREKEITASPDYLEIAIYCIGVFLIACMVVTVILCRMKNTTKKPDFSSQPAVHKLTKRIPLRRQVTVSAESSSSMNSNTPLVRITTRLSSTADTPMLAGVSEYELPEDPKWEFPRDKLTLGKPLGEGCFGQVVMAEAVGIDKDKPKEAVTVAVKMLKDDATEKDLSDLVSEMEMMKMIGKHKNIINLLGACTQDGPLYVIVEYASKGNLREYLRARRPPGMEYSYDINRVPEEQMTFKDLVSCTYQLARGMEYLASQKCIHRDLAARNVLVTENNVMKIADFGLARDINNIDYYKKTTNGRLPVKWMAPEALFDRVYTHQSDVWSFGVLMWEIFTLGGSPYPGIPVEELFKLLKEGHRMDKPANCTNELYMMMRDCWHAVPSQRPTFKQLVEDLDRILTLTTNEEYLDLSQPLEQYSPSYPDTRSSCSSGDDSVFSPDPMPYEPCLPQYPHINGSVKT
T4 sequence (P22607 23-806 limits assumed, change not shown): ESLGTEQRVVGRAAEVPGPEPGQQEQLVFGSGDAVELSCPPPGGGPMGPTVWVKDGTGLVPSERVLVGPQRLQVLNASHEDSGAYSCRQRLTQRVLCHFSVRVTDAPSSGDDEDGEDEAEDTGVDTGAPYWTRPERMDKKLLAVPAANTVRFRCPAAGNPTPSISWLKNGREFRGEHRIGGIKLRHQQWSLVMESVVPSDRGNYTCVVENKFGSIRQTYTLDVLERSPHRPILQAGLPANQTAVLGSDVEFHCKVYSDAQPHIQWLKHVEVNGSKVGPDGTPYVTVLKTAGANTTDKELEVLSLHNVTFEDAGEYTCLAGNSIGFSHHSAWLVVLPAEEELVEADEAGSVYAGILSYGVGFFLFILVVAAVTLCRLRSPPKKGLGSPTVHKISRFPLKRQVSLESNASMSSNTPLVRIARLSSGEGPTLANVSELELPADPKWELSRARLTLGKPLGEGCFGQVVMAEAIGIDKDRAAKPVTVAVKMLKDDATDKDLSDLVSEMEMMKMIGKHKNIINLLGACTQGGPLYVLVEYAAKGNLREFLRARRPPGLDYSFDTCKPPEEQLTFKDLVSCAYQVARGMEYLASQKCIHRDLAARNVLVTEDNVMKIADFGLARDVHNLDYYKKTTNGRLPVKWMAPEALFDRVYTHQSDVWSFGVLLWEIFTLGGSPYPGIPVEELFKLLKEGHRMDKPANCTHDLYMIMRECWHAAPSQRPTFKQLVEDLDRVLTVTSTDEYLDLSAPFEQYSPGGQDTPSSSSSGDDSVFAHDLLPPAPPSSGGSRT
T2 sequence (P11362 22-822 limits assumed, change not shown): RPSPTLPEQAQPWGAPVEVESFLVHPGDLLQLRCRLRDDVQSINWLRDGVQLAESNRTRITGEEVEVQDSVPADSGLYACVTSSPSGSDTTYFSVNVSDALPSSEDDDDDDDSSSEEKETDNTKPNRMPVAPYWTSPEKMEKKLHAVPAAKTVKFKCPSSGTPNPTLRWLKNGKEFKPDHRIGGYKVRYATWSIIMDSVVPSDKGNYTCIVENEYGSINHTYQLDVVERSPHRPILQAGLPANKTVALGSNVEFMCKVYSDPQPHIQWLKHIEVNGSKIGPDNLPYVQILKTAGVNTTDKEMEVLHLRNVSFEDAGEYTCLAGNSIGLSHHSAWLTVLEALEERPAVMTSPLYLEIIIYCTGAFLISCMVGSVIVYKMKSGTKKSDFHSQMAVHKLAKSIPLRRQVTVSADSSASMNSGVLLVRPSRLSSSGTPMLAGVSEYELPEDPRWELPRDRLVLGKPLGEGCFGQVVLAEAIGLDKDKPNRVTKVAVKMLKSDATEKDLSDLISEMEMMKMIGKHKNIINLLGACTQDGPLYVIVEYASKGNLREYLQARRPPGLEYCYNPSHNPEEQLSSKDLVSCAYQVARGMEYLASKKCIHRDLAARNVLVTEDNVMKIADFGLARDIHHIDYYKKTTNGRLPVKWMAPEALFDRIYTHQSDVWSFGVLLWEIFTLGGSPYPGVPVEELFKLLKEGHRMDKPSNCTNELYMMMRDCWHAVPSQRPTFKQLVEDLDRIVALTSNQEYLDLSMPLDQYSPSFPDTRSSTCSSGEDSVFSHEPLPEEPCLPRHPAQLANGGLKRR
T3 sequence (P21802 other isoform, or with tags, fused parts or gaps mutant limits assumed): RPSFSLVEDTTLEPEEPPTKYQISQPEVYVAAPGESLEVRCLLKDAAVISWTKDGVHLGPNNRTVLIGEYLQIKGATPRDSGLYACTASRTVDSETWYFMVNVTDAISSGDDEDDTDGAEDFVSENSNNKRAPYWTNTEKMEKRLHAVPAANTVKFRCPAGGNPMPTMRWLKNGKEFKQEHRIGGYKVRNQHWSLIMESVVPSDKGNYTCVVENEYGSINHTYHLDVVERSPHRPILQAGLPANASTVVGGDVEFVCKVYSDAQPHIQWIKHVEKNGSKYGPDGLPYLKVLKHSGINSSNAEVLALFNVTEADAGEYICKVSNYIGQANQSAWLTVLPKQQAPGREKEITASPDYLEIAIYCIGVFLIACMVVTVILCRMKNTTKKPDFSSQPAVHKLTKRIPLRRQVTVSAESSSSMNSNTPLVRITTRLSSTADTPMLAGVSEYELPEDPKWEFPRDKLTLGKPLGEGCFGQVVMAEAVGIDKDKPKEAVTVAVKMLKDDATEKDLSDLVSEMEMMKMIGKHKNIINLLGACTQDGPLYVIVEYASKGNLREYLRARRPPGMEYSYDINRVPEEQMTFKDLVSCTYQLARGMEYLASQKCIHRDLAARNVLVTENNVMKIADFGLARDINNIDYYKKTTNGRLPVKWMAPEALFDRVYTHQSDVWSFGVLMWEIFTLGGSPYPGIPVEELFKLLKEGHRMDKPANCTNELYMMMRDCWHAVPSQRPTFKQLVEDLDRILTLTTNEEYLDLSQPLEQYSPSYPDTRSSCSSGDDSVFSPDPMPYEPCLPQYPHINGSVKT

- binding result [1]: binds
- binding result [2]: no binding (tested: 15 µg/mL)
- binding result [3]: no binding (tested: 15 µg/mL)
- binding result [4]: no binding (tested: 15 µg/mL)
B1: rat anti-FGFR2 antibody FR2-2nd_#028 (antibody, V domains shown)
VH: EVQLVESGGGLVQPGRSLKLSCAASGFTFSDYGMAWVRQAPTKGLEWVATISYDGSSTYYRDSVKGRFTISRENAKSTLSLQMDSLRSEDTATYYCTRHPTYYYIMDAWGQGASVTVSS
VL: DTVLTQSPALAVSLGQRVTISCRASKSVSTFMNWYQQKSGQQPKLLIYRASNLESGVPSRFSGSGSGTDFTLTIDPVEADDIANYYCQQSNELPLTFGSGTKLEIKR
notes: Rat monoclonal from hybridoma; also called rat FR2-2nd_#028; rat antibody FR2-2nd_#028

- binding result [5]: binds
- binding result [6]: no binding (tested: 5 µg/ml)
- binding result [2]: no binding (tested: 15 µg/mL)
- binding result [4]: no binding (tested: 15 µg/mL)
B2: mouse chimeric anti-FGFR2 antibody FR2-2nd_#028 (antibody, mouse IgG1, kappa, V domains shown)
VH: B1 VH
VL: B1 VL
notes: The full-chain entries may include a secretory signal; also called mouse chimeric FR2-2nd_#028; mouse IgG1 chimeric FR2-2nd_#028

- binding result [7]: no binding (tested: 15 µg/mL)
- binding result [8]: no binding (tested: 15 µg/mL)
- binding result [9]: binds
- binding result [10]: binds
B3: rat anti-FGFR2 antibody FR2-2nd_#023 (antibody, V domains shown)
VH: EVQLVESGGGLVQPGRSMKLSCAASGLTFSNYGMAWVRQAPKKGLEWVAFISHDGGSSYYRDSVEGRFIISRDNAKSTLSLQMDSLRSEDTATYYCTTAGDYYSDNDWYFDFWGPGIMVTVSS
VL: DIQMTQSPSLLSASVGDRVTLSCKASQSIYNSLAWYQQKLGEAPKLLIYDADSLQTGIPSRFSGSGSGTDYTLTISSLQPEDVATYFCQKYYSGWTFGGGTKLELKR
notes: Rat monoclonal from hybridoma; also called rat FR2-2nd_#023; rat antibody FR2-2nd_#023

- binding result [7]: no binding (tested: 15 µg/mL)
- binding result [11]: no binding (tested: 5 µg/ml)
- binding result [12]: binds
- binding result [13]: binds
B4: mouse chimeric anti-FGFR2 antibody FR2-2nd_#023 (antibody, mouse IgG1, kappa, V domains shown)
VH: B3 VH
VL: B3 VL
notes: The full-chain entries may include a secretory signal; also called mouse chimeric FR2-2nd_#023; mouse IgG1 chimeric FR2-2nd_#023
